This passage reports Kd results from publication PMC11306395, “Structural basis for the interaction between human coronavirus HKU1 spike receptor binding domain and its receptor TMPRSS2” (Cell Discovery, 2024).

This experiment concerns the target T1, transmembrane serine protease 2 (TMPRSS2) ectodomain (human, UniProt O15393 106-492).
T1 construct: Transmembrane serine protease 2 (TMPRSS2), ectodomain; also called TMRPSS2; source: purified
The experiment is described as follows: BLI; bio-layer interferometry titrations of RBD-TMPRSS2; which partner was immobilised and the conditions are not told. The conditions noted are these: both partners purified. For orientation: BLI is a label-free optical method that tracks binding on a fibre tip over time.

T1 sequence (O15393 106-492): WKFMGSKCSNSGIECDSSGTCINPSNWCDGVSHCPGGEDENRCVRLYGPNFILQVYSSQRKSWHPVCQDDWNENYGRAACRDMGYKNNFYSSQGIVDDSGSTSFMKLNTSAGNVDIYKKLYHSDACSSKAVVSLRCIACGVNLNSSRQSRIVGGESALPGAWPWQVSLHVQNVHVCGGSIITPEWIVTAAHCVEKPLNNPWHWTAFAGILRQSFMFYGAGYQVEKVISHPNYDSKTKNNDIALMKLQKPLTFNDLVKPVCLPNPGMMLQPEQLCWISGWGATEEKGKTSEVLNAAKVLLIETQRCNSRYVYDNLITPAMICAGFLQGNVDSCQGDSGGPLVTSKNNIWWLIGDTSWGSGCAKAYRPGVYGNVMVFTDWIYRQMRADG

B1: HKU1-B (1B) spike S1 receptor-binding domain (domain or fragment)
chain: NLPDCDIDNWLNNVSVPSPLNWERRIFSNCNFNLSTLLRLVHVDSFSCNNLDKSKIFGSCFNSITVDKFAIPNRRRDDLQLGSSGFLQSSNYKIDISSSSCQLYYSLPLVNVTINNFNPSSWNRRYGFGSFNLSSYDVVYSDHCFSVNSDFCPCADPSVVNSCAKSKPPSAICPAGTKYRHCDLDTTLYVKNWCRCSCLPDPISTYSPNTCPQKKVVVGIGEHCPGLGINEEKCGTQLNHSSCFCSPDAFLGWSFDSCISNNRCNIFSNFIFNGINSGTTCSNDL
modifications: N-glycosylated; disulfides C504-C518 and C520-C533. Construct limits are only in the schematic (Fig. 1a), so they are taken from the paper's own deposited entity 8YQQ; the assayed construct may …
B1: the Kd was found to be 170 nM.

B2: HKU1-A (1A) spike S1 receptor-binding domain (domain or fragment)
chain: SGFTVKPVATVHRRIPDLPDCDIDKWLNNFNVPSPLNWERKIFSNCNFNLSTLLRLVHTDSFSCNNFDESKIYGSCFKSIVLDKFAIPNSRRSDLQLGSSGFLQSSNYKIDTTSSSCQLYYSLPAINVTINNYNPSSWNRRYGFNNFNLSSHSVVYSRYCFSVNNTFCPCAKPSFASSCKSHKPPSASCPIGTNYRSCESTTVLDHTDWCRCSCLPDPITAYDPRSCSQKKSLVGVGEHCAGFGVDEEKCGVLDGSYNVSCLCSTDAFLGWSYDTCVSNNRCNIFSNFILNGINSGTTCSNDLLQPNTEVFTDVCVDYDLYGITGQGIFKEVSAVYYNSWQNLLYDSNGNIIGFKDFVTNKTYNIFPCYAG
modifications: N-glycosylated; disulfides C504-C518 and C520-C533. Construct limits are only in the schematic (Fig. 1a), so they are taken from the paper's own deposited entity 8YOY (start and end shown match …)
The molecule B2 had a Kd of 323 nM.

One may read the Kd as the constant that tells how readily two partners part at equilibrium. Lower therefore signals higher affinity.
